The results in this text go back to patent US20250339569A1 (3B PHARMACEUTICALS, published 2025).

Starred links: 1 amine or outer side, 2 acyl side, 3 side chain; linkers in the order of their positions; H or OH if unused. Positions of bridges follow the written chain, without caps; N, C: chain ends. Non-standard residues stand in square brackets, D forms with d. Primed or numbered codes have the meaning given here. No end group written: not given here. *: point of attachment. Aph(CCprAc) = 4-aminophenylalanine acylated on the ring amine with 1-cyano-1-cyclopropanecarboxylic acid, N#CC1(C(=O)Nc2ccc(C[C@H](N[*:1])C(=O)[*:2])cc2)CC1; Aph(SaPr)″ = 4-amino-L-phenylalanine, ring amine acylated with 3-sulfamoylpropanoic acid, NS(=O)(=O)CCC(=O)Nc1ccc(C[C@H](N[*:1])C(=O)[*:2])cc1; Aph(SaPr) = 4-amino-L-phenylalanine, ring amine acylated by 3-sulfamoylpropanoic acid, NS(=O)(=O)CCC(=O)Nc1ccc(C[C@H](N[*:1])C(=O)[*:2])cc1; Aph(Iva) = 4-aminophenylalanine acylated on the ring amine with isovaleric acid, CC(C)CC(=O)Nc1ccc(C[C@H](N[*:1])C(=O)[*:2])cc1; Aph(FAc) = 4-aminophenylalanine acylated on the ring amine with fluoroacetic acid, O=C(CF)Nc1ccc(C[C@H](N[*:1])C(=O)[*:2])cc1; Aph(Prp) = 4-aminophenylalanine acylated on the ring amine with propionic acid, CCC(=O)Nc1ccc(C[C@H](N[*:1])C(=O)[*:2])cc1; Af3(DkpAc) = 3-amino-L-phenylalanine acylated on the ring amine with 2-(3,6-dioxopiperazin-2-yl)acetic acid; Phe(3-NHCO(CH2)3SO2NH2) = N[C@@H](Cc1cccc(NC(=O)CCCS(N)(=O)=O)c1)C(=O)O; APAc″ = 2-(4-(amino)piperidin-1-yl)acetic acid, NC1CCN(CC(=O)*)CC1; DOTA = O=C(O)CN1CCN(CC(=O)O)CCN(CC(=O)*)CCN(CC(=O)O)CC1; mXylylene = c1cc(C[*:1])cc(C[*:2])c1; N6iQui = not defined here; PPAc″ = not defined here Some results are limits rather than exact numbers.

Sequences and labels used below:
B1: 3BP-4555 (peptide)
peptide: QCE[dP]D[Phe(3-NHCO(CH2)3SO2NH2)]LTWSC-NH2
modifications: linker 2-11 via mXylylene; not fully specified (N-terminus); also: Lu complexed in DOTA
notes: also called natLu-DPI-4452
B2: 3BP-4501 (peptide)
peptide: {DOTA}-QCE[dP]D[Aph(SaPr)]LTWSC-NH2
modifications: linker 2-11 via mXylylene
SMILES: CC(C)C[C@@H]1NC(=O)[C@H](Cc2ccc(NC(=O)CCS(N)(=O)=O)cc2)NC(=O)[C@H](CC(=O)O)NC(=O)[C@H]2CCCN2C(=O)[C@H](CCC(=O)O)NC(=O)[C@@H](NC(=O)[C@H](CCC(N)=O)NC(=O)CN2CCN(CC(=O)O)CCN(CC(=O)O)CCN(CC(=O)O)CC2)CSCc2cccc(c2)CSC[C@@H](C(N)=O)NC(=O)[C@H](CO)NC(=O)[C@H](Cc2c[nH]c3ccccc23)NC(=O)[C@H]([C@@H](C)O)NC1=O
notes: also called DPI-4501

T2 sequence (O43570 25-301 limits assumed): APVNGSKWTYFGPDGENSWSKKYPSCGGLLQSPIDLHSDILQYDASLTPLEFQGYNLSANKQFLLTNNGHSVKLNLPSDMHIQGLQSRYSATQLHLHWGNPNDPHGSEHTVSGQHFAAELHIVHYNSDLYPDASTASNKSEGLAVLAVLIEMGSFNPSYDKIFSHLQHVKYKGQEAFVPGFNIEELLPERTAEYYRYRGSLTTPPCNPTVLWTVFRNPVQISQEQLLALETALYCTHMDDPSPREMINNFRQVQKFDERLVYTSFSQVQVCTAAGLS

The target of one assay is Fc-fusion protein of human carbonic anhydrase IX (human, UniProt Q16790 38-414). Kind of assay: SPR, captured hCAIX-Fc; t1/2 category A: >15.0 min.
As to {DOTA-PPAc″}-QCE[dP]D[Phe(3-NHCO(CH2)3SO2NH2)]LTWSC-NH2 (linker 2-11 via mXylylene; reading uncertain, also called DPI-4452) [3BP-4452], the “t1/2 (half-life of the complex, SPR)” value was above 15 min.

Turning to B1, the “t1/2 (half-life of the complex, SPR)” value was above 15 min.

On to {DOTA}-QCE[dP]D[Aph(SaPr)″]LTWSC-NH2 (linker 2-11 via mXylylene; also: Lu complexed in DOTA, also called natLu-3BP-4501) [3BP-4581], for which the “t1/2 (half-life of the complex, SPR)” value was above 15 min.

For B2, the “t1/2 (half-life of the complex, SPR)” value was above 15 min.

The target of another assay is T1, human carbonic anhydrase IV (CAIV), biotinylated (human, UniProt P22748 19-283, limits assumed, biotinylated).
T1 construct: Bought (SinoBiological, Cat # printed 10472-1H081H); also called hCAIV-bio
T1 sequence (P22748 19-283 limits assumed): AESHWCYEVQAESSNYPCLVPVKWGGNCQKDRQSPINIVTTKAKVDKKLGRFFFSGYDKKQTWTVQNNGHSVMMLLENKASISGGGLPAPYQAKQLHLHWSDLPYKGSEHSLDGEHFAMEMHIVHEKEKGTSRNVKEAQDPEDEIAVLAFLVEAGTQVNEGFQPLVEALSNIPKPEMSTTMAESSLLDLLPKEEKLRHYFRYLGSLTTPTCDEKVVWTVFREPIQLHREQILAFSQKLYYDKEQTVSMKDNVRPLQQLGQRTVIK
Description: SPR, biotinylated CAIV captured (Biotin CAPture). An excerpt: (§1) For each test compound, SPR raw data in the form of resonance units (RU) were plotted as sensorgrams using the Biacore™ T200 control software. The signal from the blank sensorgram was subtracted from that of the test compound sensorgram (blank corrected). The blank corrected sensorgram was corrected for baseline drift by subtracting the sensorgram of a SCK run without the test compound (running buffer only). […] Raw data and fit results were imported as text files in IDBS. The pKD value (negative decadic logarithm of dissociation constant) was calculated in the IDBS excel template.
Turning to {DOTA-PPAc″}-QCE[dP]D[Phe(3-NHCO(CH2)3SO2NH2)]LTWSC-NH2 (linker 2-11 via mXylylene; reading uncertain, also called DPI-4452) [3BP-4452], the pKD was below 6 pkd.

With B1, the pKD was below 6 pkd.

Regarding {DOTA}-QCE[dP]D[Aph(SaPr)″]LTWSC-NH2 (linker 2-11 via mXylylene; also: Lu complexed in DOTA, also called natLu-3BP-4501) [3BP-4581], the pKD was below 6 pkd.

B2 registered a pKD below 6 pkd.

Another assay concerns the target human carbonic anhydrase 9 (CAIX) (human, UniProt Q16790 38-459). Description: FACS competition on HT-29 cells, competitor tracer 3BP-4149; category C = pIC50 6.1-7.0. The procedure:
CAIX-expressing human HT-29 colorectal cancer cells (DSMZ, RRID: CVCL_0320) were cultured in McCoys's 5A modified medium (Biochrom, #F1015) including 10% fetal calf serum (FCS), 2 mM L-glutamine, 100 U/ml penicillin and 100 μg/mL streptomycin. Cells were detached with Accutase (Biolegend, #423201) and washed in FACS buffer (PBS including 1% FCS). Cells were diluted in FACS buffer to a final concentration of 500.000 cells per ml. 200 μL of the cell suspension were transferred to a u-shaped non-binding 96-well plate (Greiner) and cells were washed in ice-cold FACS buffer.
When biotinylated compounds were used an additional incubation step with 1 μg/mL APC-Streptavidin (Miltenyi; #130-106-791) in 50 μL FACS buffer for 30 minutes on ice was performed.
Cells were washed twice with ice-cold FACS buffer and analyzed in an Attune NxT flow cytometer (Thermo Fisher). Median fluorescence intensities (MFI) of the APC/Cy5-channel were calculated by Attune NxT software.
With {DOTA-APAc″}-VYCE[dP]D[Aph(CCprAc)]LTWSC-NH2 (linker 3-12 via mXylylene) [3BP-4357], the pIC50 was 6.1 to 7 pic50.

On to {DOTA-APAc″}-VYCE[dP]D[Af3(DkpAc)]LTWSC-NH2 (linker 3-12 via mXylylene) [3BP-4288], for which the pIC50 fell in the range of 6.1 to 7 pic50.

Turning to {DOTA-APAc″}-VYCE[dP]D[Aph(Prp)]LTWSC-NH2 (linker 3-12 via mXylylene) [3BP-4347], the pIC50 lay in the range of 6.1 to 7 pic50.

{DOTA-APAc″}-VYCE[dP]D[Aph(Iva)]LTWSC-NH2 (linker 3-12 via mXylylene) [3BP-4348]: the pIC50 is 6.1 to 7 pic50.

Turning to {DOTA-APAc″}-VYCE[dP]E(N6iQui)WLTWSC-NH2 (linker 3-12 via mXylylene; reading uncertain) [3BP-4328], the pIC50 was 6.1 to 7 pic50.

In turn, {DOTA-APAc″}-VYCE[dP]D[Aph(FAc)]LTWSC-NH2 (linker 3-12 via mXylylene) [3BP-4358] gave a pIC50 of 6.1 to 7 pic50.

Another assay has as its target T2, human carbonic anhydrase XII (CAXII), biotinylated (human, UniProt O43570 25-301, biotinylated).
T2 construct: Bought (SinoBiological Cat #10617-H08H); also called hCAXII-bio
Kind of assay: SPR, biotinylated CAXII captured (Biotin CAPture).
Excerpt: as §1
As for {DOTA-PPAc″}-QCE[dP]D[Phe(3-NHCO(CH2)3SO2NH2)]LTWSC-NH2 (linker 2-11 via mXylylene; reading uncertain, also called DPI-4452) [3BP-4452], the pKD was below 6 pkd.

With B1, the pKD was below 6 pkd.

Take {DOTA}-QCE[dP]D[Aph(SaPr)″]LTWSC-NH2 (linker 2-11 via mXylylene; also: Lu complexed in DOTA, also called natLu-3BP-4501) [3BP-4581]: the pKD is below 6 pkd.

With B2, the pKD is below 6 pkd.

The target of a further assay is T3, human carbonic anhydrase XIV (CAXIV), biotinylated (human, UniProt Q9ULX7 16-290, biotinylated).
T3 construct: Bought (SinoBiological Cat #10458-H08H); also called hCAXIV-bio
T3 sequence (Q9ULX7 16-290 limits assumed): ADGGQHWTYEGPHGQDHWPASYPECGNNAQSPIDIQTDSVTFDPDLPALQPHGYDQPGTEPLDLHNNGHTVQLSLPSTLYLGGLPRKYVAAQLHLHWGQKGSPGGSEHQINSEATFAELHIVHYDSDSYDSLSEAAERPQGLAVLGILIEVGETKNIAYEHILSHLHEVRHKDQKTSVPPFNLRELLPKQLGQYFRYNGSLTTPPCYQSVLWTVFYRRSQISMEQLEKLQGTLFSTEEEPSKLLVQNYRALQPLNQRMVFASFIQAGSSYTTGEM
Description: SPR, biotinylated CAXIV captured (Biotin CAPture).
Excerpt: as §1
For the molecule {DOTA-PPAc″}-QCE[dP]D[Phe(3-NHCO(CH2)3SO2NH2)]LTWSC-NH2 (linker 2-11 via mXylylene; reading uncertain, also called DPI-4452) [3BP-4452], the pKD was below 6 pkd.

B1 yielded a pKD below 6 pkd.

On to {DOTA}-QCE[dP]D[Aph(SaPr)″]LTWSC-NH2 (linker 2-11 via mXylylene; also: Lu complexed in DOTA, also called natLu-3BP-4501) [3BP-4581], for which the pKD was below 6 pkd.

For B2, the pKD is below 6 pkd.
